Assay [1] addresses MYC-Grg5 (in COS-7 cells) (UniProt P63002).
Assay [2] addresses GST-fused Grg1 (UniProt Q62440). The assay is described as follows: pull-down; GST-Grg1 or GST-Grg5 from lysed BL21 E. coli incubated with S^35-labelled in vitro translated Sox2 proteins; pulled down with Glutathione-sepharose 4B beads; PAGE gel on a phosphorimager.
For assay [3], the target named is GST-fused Grg5 (UniProt P63002). The assay is described as above.

The values below come from publication PMC4148960.

Chain of radiolabelled Sox2^M203–209 (in vitro translated) (P48432 whole entry): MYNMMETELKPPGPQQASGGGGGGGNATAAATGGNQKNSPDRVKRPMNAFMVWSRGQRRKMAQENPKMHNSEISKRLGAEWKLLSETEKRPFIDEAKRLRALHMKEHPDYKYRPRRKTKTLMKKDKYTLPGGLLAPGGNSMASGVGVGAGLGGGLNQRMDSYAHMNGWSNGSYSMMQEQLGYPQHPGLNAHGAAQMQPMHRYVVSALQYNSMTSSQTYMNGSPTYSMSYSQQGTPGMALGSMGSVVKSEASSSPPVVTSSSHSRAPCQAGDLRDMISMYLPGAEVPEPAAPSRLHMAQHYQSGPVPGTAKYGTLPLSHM
Chain of MYC-Grg5 (in COS-7 cells) (P63002 whole entry, the tested form may be a part): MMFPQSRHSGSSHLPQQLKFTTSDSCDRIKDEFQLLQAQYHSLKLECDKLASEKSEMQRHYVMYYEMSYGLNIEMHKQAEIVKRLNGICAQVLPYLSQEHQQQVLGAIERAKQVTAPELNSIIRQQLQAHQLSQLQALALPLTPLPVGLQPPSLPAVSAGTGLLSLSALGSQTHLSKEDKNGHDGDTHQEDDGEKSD
Chain of GST-fused Grg5 (P63002 whole entry, the tested form may be a part): as above
Chain of Sox2^M203–209 mutant (transfected, COS-7 cells) (P48432 whole entry, change not shown): as the sequence (P48432 whole entry) above
Chain of GST-fused Grg1 (Q62440 whole entry, the tested form may be a part): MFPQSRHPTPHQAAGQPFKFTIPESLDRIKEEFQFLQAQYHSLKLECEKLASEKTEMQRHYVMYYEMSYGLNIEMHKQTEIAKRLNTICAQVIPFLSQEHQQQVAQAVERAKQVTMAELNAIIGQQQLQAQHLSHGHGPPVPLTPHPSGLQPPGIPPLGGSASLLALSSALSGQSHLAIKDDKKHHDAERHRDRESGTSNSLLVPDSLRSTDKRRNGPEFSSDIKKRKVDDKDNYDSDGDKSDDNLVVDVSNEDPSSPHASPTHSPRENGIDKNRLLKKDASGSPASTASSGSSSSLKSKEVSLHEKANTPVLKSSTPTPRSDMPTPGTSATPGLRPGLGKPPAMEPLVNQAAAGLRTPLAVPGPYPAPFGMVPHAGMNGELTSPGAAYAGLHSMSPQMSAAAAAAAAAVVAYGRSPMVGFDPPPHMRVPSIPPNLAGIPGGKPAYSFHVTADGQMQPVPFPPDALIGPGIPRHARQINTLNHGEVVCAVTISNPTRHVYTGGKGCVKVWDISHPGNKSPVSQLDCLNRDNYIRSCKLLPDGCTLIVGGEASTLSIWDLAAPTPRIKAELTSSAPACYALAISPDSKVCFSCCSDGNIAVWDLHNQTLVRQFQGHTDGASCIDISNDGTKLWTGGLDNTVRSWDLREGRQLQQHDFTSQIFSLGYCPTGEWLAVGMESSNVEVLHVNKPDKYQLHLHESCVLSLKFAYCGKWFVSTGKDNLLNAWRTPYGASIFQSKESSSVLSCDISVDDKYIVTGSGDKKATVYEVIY

Turning to “Sox2^M203–209 mutant (transfected, COS-7 cells) (from UniProt P48432 1-319) (natural protein)”, in assay [1], the subcellular translocation assay: proportion of co-transfected COS-7 cells with altered distribution of MYC-Grg5, mutant against WT Sox2 was 50%.

For “radiolabelled Sox2^M203–209 (in vitro translated) (from UniProt P48432 1-319) (natural protein)”, the fold decrease in the amount pulled down against WT Sox2 in assay [2] and in assay [3] was 4 fold throughout.
